The record followed here is the nanobody polyreactivity screen of Harvey et al. (2022).

The nature of the series: yeast display, Sf9 membrane polyspecificity reagent, FACS + sequencing; frameworks hold sequencing errors. In outline:
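A synthetic nanobody library was expressed on Saccharomyces cerevisiae BJ5465 by galactose induction for 36–48 hours. The library was stained for 1 hour at 4 °C with 10% biotinylated, detergent-solubilized Sf9 membrane reagent and enriched with streptavidin microbeads before FACS. Low and high (top ~1%) gates were set on anti-HA fluorescence for expression and streptavidin fluorescence for reagent binding, and each polyreactivity label reflects the gate of origin.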
Regarding “QVQLVESGGGLVQAGGSLRLSCAASAITFFNNAMGWYRPATGKERELVADITYSGSTYYADSVKGRFTISRDNAQNSVYLQMNSLKPEDTAVYYCSAGHAYDYFVYYPDDYWGQGTQVTVSS”, the “polyreactivity (PSR sort gate)” value is “low polyreactivity”.
Turning to “QVQLVESGGGLVQAGGSLRLSCAASAITYAYYPMGWYRQAPGKETELVAGITDVGSTNYADSVKGRFTLSRDNAKNTVYLQMNSLKPEDTAGYYCAAEYDGPYYSFYPEQRYYWGQGTQVTVSS”, the “polyreactivity (PSR sort gate)” value is “low polyreactivity”.
As to “QVQLVESGGGLVQAGGSLRLSCAASARIQDKYARGWYRQAPGKERELVARIRFSGGDTYADSVKGRFTISRDNAKNTVYLQMNSLKPEDTAVYYCNKDRRNRWYAFDYWGQGTQVTVSS”, the “polyreactivity (PSR sort gate)” value is on record as “low polyreactivity”.
The entry for “QVQLVESGGGLVQAGGSLRLSCAASARNFYANVMGWYRQAPGKEREFVAAIRWSGGRTYYADSVKGRFTISRDNAKNTVYLQMNSLKPEDTAVYYCAADPWDYISYYIYDYWGQGTQVTVSS” is “low polyreactivity”.
The entry for “QVQLVESGGGLVQAGGSLRLSCAASARTFGVYAMGWYRQAPGKERELVAAISKSDGSTYYADSVKGRFTISRDNAKITVYLQMNSLKPEDTAVYYCATVTLHQRDTQDDFWGQGTQVTVSS” is “low polyreactivity”; for “QVQLVESGGGLVQAGGSLRLSCAASARTFYRYAMGWYRQAPGKERELVAAITRRSGNTYYADSVKGRFTISRDNAKNTVYLQMNSLKPEDTAVYYFNTVYPRRLIFGYWGQGTQVTVSS” it is “high polyreactivity”.
As to “QVQLVESGGGLVQAGGSLRLSCAASASIFLEYAMGWYRQAPGKERELVAGITISGGSTYYADSVKGRFTISRDNAKNTVYLQMNSLKPEDSAVYYCAKVAPRSSSSLEYYYWGQGTQVTVSS”, the “polyreactivity (PSR sort gate)” value is “low polyreactivity”.
The entry for “QVQLVESGGGLVQAGGSLRLSCAASASIFPRNTMGWYRPAPGKERELVAAISRSGGSTYYADSVKGRFTISRDNAKNTVYLQMNSLKPEDTAVYYCAVSGGTSRRYYYWGQGTQVTVSS” is “high polyreactivity”; for “QVQLVESGGGLVQAGGSLRLSCAASASIFSVYAMGWYRQAPGKERELVAAITRSGARTYYADSVKGRFTISRDNAKNTVYLQMNSLKPDDTAVYYCAADDPGYNQVEYWGQGTQVTVSS” it is “high polyreactivity”.
The entry for “QVQLVESGGGLVQAGGSLRLSCAASASTFRPYAMGWFRQAPGKEREFVASITWRGGGTYYADSVKGRFTISRDNAKNTVYLQMNSLKPEDTAVFSCAAATQVRGNSLPYGYWGQGTQVTVSS” is “high polyreactivity”; for “QVQLVESGGGLVQAGGSLRLSCAASASTFVSNAMGWYRQAPGKERELVAAISKSGGSTYYADSVKGRFTISRDNAKNTVYLEMNSLKPEDTAVYYCSKYTAISFYGQYDYWGQGTQVTVSS” it is “high polyreactivity”.
The entry for “QVQLVESGGGLVQAGGSLRLSCAASATFYYYAMGWSRQAPGKERELVAAISYSGGRTYYADSVKGRFTISRDNAKNTVYLQMNSLKPEDTAVYYCNALYRKTPSYGADDYWGQGTQVTVSS” is “high polyreactivity”; for “QVQLVESGGGLVQAGGSLRLSCAASAWYAMGWYRQAPGKEREFVAAITFSGSSTYYADSVKGRFTISRDNAKNTVYLQMNSLKPEDTAVYYCNADWWEWGQGTQVTVSS” it is “low polyreactivity”.
“QVQLVESGGGLVQAGGSLRLSCAASGAIFVPYAMGWYRQAPGKERELVAAITYSDGSTYYADSVKGRFTISRDNAKNTVYLQMNSLKPEDTAVYYCAAEWIEFPDPVSWYYYTPYYYWGQGTQVTVSS”: the “polyreactivity (PSR sort gate)” value is recorded as “high polyreactivity”.
As to “QVQLVESGGGLVQAGGSLRLSCAASGATFGYYGMGWYRQAHGTERELVAAISTRGDSTYYADSVMGRFTISRDNAKNPVYLQMHSLKPEDPAGYYCAKSRQSSGRVRFDYWGQGTQVTVSS”, the “polyreactivity (PSR sort gate)” value is given as “low polyreactivity”.
In the case of “QVQLVESGGGLVQAGGSLRLSCAASGATFTFYAMGWYRQAPGKERELVATINWSGGSTYYADSVKGRFTISRDNSKYTVYLQMNSMKPEDTAVFYCNAACPFKSVEYWGQGTQVTVSS”, the “polyreactivity (PSR sort gate)” value was “low polyreactivity”.
On to “QVQLVESGGGLVQAGGSLRLSCAASGCIFFQYAMGWYIQAPGKERELVAAISGSGVTTYYADSVKGRFTISRDNAKNTVYLQMNSLKPEDTAVYYCNAALRWKYDWGQGTQVTVSS”, for which the “polyreactivity (PSR sort gate)” value was “low polyreactivity”.
The entry for “QVQLVESGGGLVQAGGSLRLSCAASGCIFRYYAKGWYRQPPGKERELVPVISSNGARTSYADSVKGRFTISRDNATYTVYLQMNSLKPEDTAVYYCNARAWSRFPPVGHDDWGQGTQVTVSS” is “high polyreactivity”.
The entry for “QVQLVESGGGLVQAGGSLRLSCAASGCIFVRYAMGWYRQAPGKERELVAAISRSGGSTSYADSVKGRFTISRDNAKNTVYLQMNSLKPEDTAVYYCAVVRGGRGYPGYDYWGQGTQVTVSS” is “low polyreactivity”.
The entry for “QVQLVESGGGLVQAGGSLRLSCAASGCTFPLYAMGWYRPAPGKERELVAAITSGGGNTYYADSVKGRFTISRDNAKNTVYLQMNSLKPEDTAVYYCAAVGGYKSYYSYEYDYWGQGTQVTVSS” is “low polyreactivity”; for “QVQLVESGGGLVQAGGSLRLSCAASGCTFQTYAMGWYRQAPGKERELVAGITAGGSTNYADSVKGRFSISRDNAKNTVYLQMNSLKPEDTAVYYCAVRQISQTSDHRLQYDYWGQGTQVNVSS” it is “low polyreactivity”.
For “QVQLVESGGGLVQAGGSLRLSCAASGFAFSYYAMGWSRQAPGKEREFVASIDWSGGSTYYADSVKGRFTISRDNAKNTVYLQMNSLKPEDTAVYYCAAELDYFPGYDYWGQGTQVTVSS”, the “polyreactivity (PSR sort gate)” value is “low polyreactivity”.
The entry for “QVQLVESGGGLVQAGGSLRLSCAASGFAFSYYAMGWYIPAPGKEREFVASIDWSGGSTYYADSVKGRFTISRDNAKNTVYLQMNSLKPEDTAVYYCAAELDYFPGYDYWGQGTQVTVSS” is “low polyreactivity”; for “QVQLVESGGGLVQAGGSLRLSCAASGFAFSYYAMGWYRQAPGKEREFVASIDWSGGSTYYADSVKGRFTISRDIAKTTVYLQMNRLKPEDTAVYYCAAELDYFPGYDYWGQGTQVTVSS” it is “low polyreactivity”.
The entry for “QVQLVESGGGLVQAGGSLRLSCAASGFICAQNAMGWYRQAPGKERELVADISGRGGRTYYADSVKGRFTISRDNAKNTVYLQMNSLKPEDTAVYYCAKDTYLQIYQYGYWGQGTQVTVSS” is “high polyreactivity”.
The entry for “QVQLVESGGGLVQAGGSLRLSCAASGFIDAYTMGWYRQAPWKERELVAAITWSGGRTYYADSVKGRFTISRDNAKNTVYLQMNSLKPEDTAVYYCAKDVTPYSPDDDYWGQGTQVTVSS” is “low polyreactivity”; for “QVQLVESGGGLVQAGGSLRLSCAASGFIDVSYAMGWYRQAPGKERELVAAIDRIGGITYYADSVKGRFTISRDNAKNTVYLQMNSLKPEDTAVYYCAAAARYATVRVGREYYWGQGTQVTVSS” it is “low polyreactivity”; for “QVQLVESGGGLVQAGGSLRLSCAASGFIFAAYAMGWYRQAPGKERELVAAISYSGDRTYYADSVKGRFTISRDNAKNTVYLQMNSLKPEDTAVYYCDADARAYTYDYWGQGTQVTVSS” it is “high polyreactivity”.
Take “QVQLVESGGGLVQAGGSLRLSCAASGFIFADYAMGWYRQAPGKERELVAAISASGGITYYADSVKGRFTISRDNAKNTVYLQMNSLKPEDTAVYYCNAVTGKWNWRKYDYWGQGTQVTVSS”: the “polyreactivity (PSR sort gate)” value is recorded as “high polyreactivity”.
The entry for “QVQLVESGGGLVQAGGSLRLSCAASGFIFAFYAMGWYRQAPGKERELVAAISLSGGSTYYADSVKGRFTISRDNAKITVYLQMNSLKPDDTAVYYCAASRYKFYYWGQGTQVTVSS” is “high polyreactivity”.
The entry for “QVQLVESGGGLVQAGGSLRLSCAASGFIFAGTAMGWYRQAPGKEWELVAAITRSGTNTYYADSVKGRFTISRDHAKNTVFLQMNSLKPEDTAVYYCNATVRYRYPYGYWGQGTQVTVSS” is “high polyreactivity”; for “QVQLVESGGGLVQAGGSLRLSCAASGFIFAGYAMGWYRQAPGKERELVAGITRNGGSTYYADSVKGRFTISRDNAKITVYFQMYSLNPEDTAVYYCAATRYSFGPRRVDYWRQGTQVTVSS” it is “high polyreactivity”.
The entry for “QVQLVESGGGLVQAGGSLRLSCAASGFIFAGYHMAWYRQAPGKERELVAAISSSGANTYYADSVKGRFTISRDNAKNTVYLQMNSLKPEYSAVYYCAALYHWTYDYWGQGTQVTVSS” is “low polyreactivity”; for “QVQLVESGGGLVQAGGSLRLSCAASGFIFAGYTMGWYRQAPGKERELVAAINSGGSTKYADSVKGRFTISRDNAKNTVYLHMNSLKPEDTAVYYCNADYGWYFLFDYWGQGTQVTVSS” it is “low polyreactivity”.
Take “QVQLVESGGGLVQAGGSLRLSCAASGFIFAHNAMGWYRQAPGKVRELVAAISWGSGSTYYADSVKGRFTISRDNAKITVYLQMNSLKPEDTAVSYCAARAVRYYAWVRGGWTSFDYWGQGTQVTVSS”: the “polyreactivity (PSR sort gate)” value was “high polyreactivity”.
For the sequence “QVQLVESGGGLVQAGGSLRLSCAASGFIFAIYAMGWYRQAPGKERELVAAITSSSSTYADSVKGRFTISRDNAKNTVYLQMNSLKPEDTAVYYCAADTYSYRYSNDYWGQGTQVTVSS”, the “polyreactivity (PSR sort gate)” value is reported as “low polyreactivity”.
Consider “QVQLVESGGGLVQAGGSLRLSCAASGFIFALYARGWYRQAPGTERELVAAITSSSSTYAASVKGRFTISRDNAKNTVYLQMNSLKPEDTAVYYCAADTYSYRYSNDYWGQGTQVTVSS”, for which the “polyreactivity (PSR sort gate)” value is on record as “low polyreactivity”.
The entry for “QVQLVESGGGLVQAGGSLRLSCAASGFIFARNTMGWYRQAPGKERELVAAITKSGGSTYYADSVKGRFTISRDNAKNTVYLQMNSLKPEDTAVYYCAARTYTLRGVYFSGYNYWGQGTQVTVSS” is “low polyreactivity”.
The entry for “QVQLVESGGGLVQAGGSLRLSCAASGFIFARYAMGWYRQAPGKERELVAAISSGGRTYFADSVKGRFTISRDNAKNTVYLQMNSLKPEDTAVYYCAKRPTNGYGTFDYWGQGTQVTVSS” is “high polyreactivity”; for “QVQLVESGGGLVQAGGSLRLSCAASGFIFASNAMGWYRQAPGKERELVAAINSSGGSTYYADSVKGRFTISRDNAKNTVYLQMNSLKPEDTAVYYCAADVIGDLRWYRDEYWGHGTQVTVSS” it is “low polyreactivity”.
The entry for “QVQLVESGGGLVQAGGSLRLSCAASGFIFASYAMGWYRQAPGKERELVAAISWRGGSTYYADSVKGRFTISRDNAKNTVYLQMNSLKPEDTAVYYCNAYVYVGTGRGYDTLDYWGQGTQVTVSS” is “low polyreactivity”.
